Measured values reported in patent US20260049138A1 (Chugai, published 2026).

Biological target: T1, CD3ε homodimer protein (human, UniProt P07766 23-126, limits assumed)
T1 construct: also called CD3 (CD3ε)
Assay: SPR
Experimental: Each one-amino acid altered form constructed, expressed, and purified in the paragraph (6-2) was evaluated using Biacore T200 (GE Healthcare Japan Corp.). An appropriate amount of CD3ε homodimer protein was immobilized onto Sensor chip CM4 (GE Healthcare Japan Corp.) by the amine coupling method. Then, the antibody having an appropriate concentration was injected thereto as an analyte and allowed to interact with the CD3ε homodimer protein on the sensor chip. Then, the sensor chip was regenerated by the injection of 10 mmol/L glycine-HCl (pH 1.5). The assay was conducted at 25° C., and HBS-EP+ (GE Healthcare Japan Corp.) was used as a running buffer. […] Each parameter was calculated using Biacore T200 Evaluation Software (GE Healthcare Japan Corp.).
Specifically, when the amount of the GLS3000-containing antibody bound was defined as X and the amount of the L chain one-amino acid altered form bound was defined as Y, a value of Z (ratio of amounts bound)=Y/X was used.

T1 sequence (P07766 23-126 limits assumed): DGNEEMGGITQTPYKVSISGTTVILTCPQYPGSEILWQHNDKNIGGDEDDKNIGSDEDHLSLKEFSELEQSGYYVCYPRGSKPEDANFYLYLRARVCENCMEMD

B1: CE115HA000 / GLS3000 one-arm antibody (unaltered) (antibody, human IgG1, kappa, L234A L235A, N297A)
heavy: QVQLVESGGGVVQPGRSLRLSCAASGFTFSNAWMHWVRQAPGKGLEWVAQIKAKSNNYATYYAESVKGRFTISRDDSKNSLYLQMNSLKTEDTAVYYCRYVHYGAYYGVDAWGQGTTVTVSSASTKGPSVFPLAPSSKSTSGGTAALGCLVKDYFPEPVTVSWNSGALTSGVHTFPAVLQSSGLYSLSSVVTVPSSSLGTQTYICNVNHKPSNTKVDKKVEPKSCDKTHTCPPCPAPEAAGGPSVFLFPPKPKDTLMISRTPEVTCVVVDVSHEDPEVKFNWYVDGVEVHNAKTKPREEQYASTYRVVSVLTVLHQDWLNGKEYKCKVSNKALPAPIEKTISKAKGQPREPQVYTLPPSRCELTKNQVSLSCAVKGFYPSDIAVEWESNGQPENNYKTTPPVLDSDGSFFLVSKLTVDKSRWQQGNVFSCSVMHEALHNHYTQKSLSLSPDYKDDDDK
chain: EPKSSDKTHTCPPCPAPELLGGPSVFLFPPKPKDTLMISRTPEVTCVVVDVSHEDPEVKFNWYVDGVEVHNAKTKPREEQYNSTYRVVSVLTVLHQDWLNGKEYKCKVSNKALPAPIEKTISKAKGQPREPQVCTLPPSRDELTKNQVSLWCLVKGFYPSDIAVEWESNGQPENNYKTTPPVLDSDGSFFLYSKLTVDKSRWQQGNVFSCSVMHEALHNRYTQKSLSLSP
light: DIVMTQSPLSLPVTPGEPASISCRSSQSLVHSNRNTYLHWYQQKPGQAPRLLIYKVSNRFSGVPDRFSGSGSGTDFTLKISRVEAEDVGVYYCGQGTQVPYTFGQGTKLEIKRTVAAPSVFIFPPSDEQLKSGTASVVCLLNNFYPREAKVQWKVDNALQSGNSQESVTEQDSKDSTYSLSSTLTLSKADYEKHKVYACEVTHQGLSSPVTKSFNRGEC
notes: All L chain altered forms m3-m332 have this format; for them only VH and VL are written out; also called GLS3000-containing antibody
B1 was tested, and the “KD ratio to GLS3000” value was 0.98.
